Read-outs that look alike come from different tables or passages of the source.
Assays:
[1] = target: T1, CspC (C-terminal His-tagged) (Staphylococcus aureus Newman, UniProt O33592 1-66); assay: EMSA
[2] = target: T1, CspC (C-terminal His-tagged); assay: EMSA; remark: listed apart in the source

Row | Binder | binding result [1] | binding result [2]
1 | GTCGACTTTTTTTTTTTTTTTTTTTT (ssDNA) [ssDNA1] | binds | 
2 | AAGTGTATAATGAAAG (ssDNA) [ssDNA3] |  | no binding

Source: paper PMC6532764
